In assay [1] the target is T1, hEGFR-6-his (SinoBiological) (human, UniProt P00533 25-645). Nature of the assay: ELISA.
Assay [2] has as its target T1, hEGFR-6-his (SinoBiological). Nature of the assay: ELISA; printed value although curve is flat.

Data on four molecules can be found in patent publication US20220089722A1 (published 2022).

B1: IgFD-26(anti-CD3/EGFR) (bispecific antibody)
chain 1: not shown
chain 2: QAVVTQEPSLTVSPGGTVTLTCRSSTGAVTTSNYANWVQQKPDHLFRGLIGGTNKRAPGTPARFSGSLLGDKAALTISGAQPEDEAEYYCALWYSNLWVFGGGTKLTVLKRTVAAPSVFIFPPSDEQLKSGTASVVCLLNNFYPREAKVQWKVDNALQSGNSQESVTEQDSKDSTYSLSSTLTLSKADYEKHKVYACEVTHQGLSSPVTKSFNRGECDKTHTCPPCPAPELLGGPSVFLFPPKPKDTLMISRTPEVTCVVVDVSHEDPEVKFNWYVDGVEVHNAKTKPREEQYASTYRVVSVLTVLHQDWLNGKEYKCKVSNKALPAPIEKTISKAKGQPREPQVCTLPPSREEMTKNQVSLSCAVKGFYPSDIAVEWESNGQPENNYKTTPPVLDSDGSFFLVSKLTVDKSRWQQGNVFSCSVMHEALHNHYTQKSLSLSPGKGGSGGSGGGGSGGGGSDIQMTQSPSSLSASVGDRVTITCQASQDISNYLNWYQQKPGKAPKLLIYDASNLETGVPSRFSGSGSGTDFTFTISSLQPEDIATYFCQHFDHLPLAFGGGTKVEIKGGGGSGGGGSGGGGSQVQLQESGPGLVKPSETLSLTCTVSGGSVSSGDYYWTWIRQSPGKGLEWIGHIYYSGNTNYNPSLKSRLTISIDTSKTQFSLKLSSVTAADTAIYYCVRDRVTGAFDIWGQGTMVTVSS
For B1, binding in assay [1] was characterised by a dissociation constant (Kd) of 0.139 nM. This counts as sub-nanomolar.

B2: IgFD-7(anti-CD19/CD3) (bispecific antibody)
chain 1: EVQLVESGGGLVQPGGSLRLSCAASGFTFNTYAMNWVRQAPGKGLEWVARIRSKYNNYATYYADSVKDRFTISRDDSKNTLYLQMNSLRAEDTAVYYCVRHGNFGNSYVSWFAYWGQGTLVTVSSASTKGPSVFPLAPSSKSTSGGTAALGCLVKDYFPEPVTVSWNSGALTSGVHTFPAVLQSSGLYSLSSVVTVPSSSLGTQTYICNVNHKPSNTKVDKKVEPKSCDKTHTCPPCPAPPVAGPSVFLFPPKPKDTLMISRTPEVTCVVVDVSHEDPEVKFNWYVDGVEVHNAKTKPREEQYNSTYRVVSVLTVLHQDWLNGKEYKCKVSNKGLPSSIEKTISKAKGQPREPQVYTLPPSRDELTKNQVSLTCLVKGFYPSDIAVEWESNGQPENNYKTTPPVLDSDGSFFLYSKLTVDKSRWQQGNVFSCSVMHEALHNHYTQKSLSLSPGK
chain 2: QAVVTQEPSLTVSPGGTVTLTCRSSTGAVTTSNYANWVQQKPDHLFRGLIGGTNKRAPGTPARFSGSLLGDKAALTISGAQPEDEAEYYCALWYSNLWVFGGGTKLTVLKRTVAAPSVFIFPPSDEQLKSGTASVVCLLNNFYPREAKVQWKVDNALQSGNSQESVTEQDSKDSTYSLSSTLTLSKADYEKHKVYACEVTHQGLSSPVTKSFNRGECDKTHTCPPCPAPPVAGPSVFLFPPKPKDTLMISRTPEVTCVVVDVSHEDPEVKFNWYVDGVEVHNAKTKPREEQYNSTYRVVSVLTVLHQDWLNGKEYKCKVSNKGLPSSIEKTISKAKGQPREPQVYTLPPSRDELTKNQVSLTCLVKGFYPSDIAVEWESNGQPENNYKTTPPVLDSDGSFFLYSKLTVDKSRWQQGNVFSCSVMHEALHNHYTQKSLSLSPGKSGGGGSGGGGSGGGGSDIQMTQTTSSLSASLGDRVTISCRASQDISKYLNWYQQKPDGTVKLLIYHTSRLHSGVPSRFSGSGSGTDYSLTISNLEQEDIATYFCQQGNTLPYTFGGGTKLEITGGGGSGGGGSGGGGSEVKLQESGPGLVAPSQSLSVTCTVSGVSLPDYGVSWIRQPPRKGLEWLGVIWGSETTYYNSALKSRLTIIKDNSKSQVFLKMNSLQTDDTAIYYCAKHYYYGGSYAMDYWGQGTSVTVSS
Regarding B2, the affinity in assay [2], expressed as Kd, was 0.161 nM.

B3: IgFD-25(anti-CD3/EGFR) (bispecific antibody)
chain 1: EVQLVESGGGLVQPGGSLRLSCAASGFTFNTYAMNWVRQAPGKGLEWVARIRSKYNNYATYYADSVKDRFTISRDDSKNTLYLQMNSLRAEDTAVYYCVRHGNFGNSYVSWFAYWGQGTLVTVSSASTKGPSVFPLAPSSKSTSGGTAALGCLVKDYFPEPVTVSWNSGALTSGVHTFPAVLQSSGLYSLSSVVTVPSSSLGTQTYICNVNHKPSNTKVDKKVEPKSCDKTHTCPPCPAPPVAGPSVFLFPPKPKDTLMISRTPEVTCVVVDVSHEDPEVKFNWYVDGVEVHNAKTKPREEQYNSTYRVVSVLTVLHQDWLNGKEYKCKVSNKGLPSSIEKTISKAKGQPREPQVYTLPPCRDELTKNQVSLWCLVKGFYPSDIAVEWESNGQPENNYKTTPPVLDSDGSFFLYSKLTVDKSRWQQGNVFSCSVMHEALHNHYTQKSLSLSPGK
chain 2: QAVVTQEPSLTVSPGGTVTLTCRSSTGAVTTSNYANWVQQKPDHLFRGLIGGTNKRAPGTPARFSGSLLGDKAALTISGAQPEDEAEYYCALWYSNLWVFGGGTKLTVLKRTVAAPSVFIFPPSDEQLKSGTASVVCLLNNFYPREAKVQWKVDNALQSGNSQESVTEQDSKDSTYSLSSTLTLSKADYEKHKVYACEVTHQGLSSPVTKSFNRGECDKTHTCPPCPAPPVAGPSVFLFPPKPKDTLMISRTPEVTCVVVDVSHEDPEVKFNWYVDGVEVHNAKTKPREEQYNSTYRVVSVLTVLHQDWLNGKEYKCKVSNKGLPSSIEKTISKAKGQPREPQVCTLPPSRDELTKNQVSLSCAVKGFYPSDIAVEWESNGQPENNYKTTPPVLDSDGSFFLVSKLTVDKSRWQQGNVFSCSVMHEALHNHYTQKSLSLSPGKGGSGGSGGGGSGGGGSDIQMTQSPSSLSASVGDRVTITCQASQDISNYLNWYQQKPGKAPKLLIYDASNLETGVPSRFSGSGSGTDFTFTISSLQPEDIATYFCQHFDHLPLAFGGGTKVEIKGGGGSGGGGSGGGGSQVQLQESGPGLVKPSETLSLTCTVSGGSVSSGDYYWTWIRQSPGKGLEWIGHIYYSGNTNYNPSLKSRLTISIDTSKTQFSLKLSSVTAADTAIYYCVRDRVTGAFDIWGQGTMVTVSS
On to B3, for which the Kd in assay [1] was determined as 0.15 nM.

B4: IgFD-31(anti-CD3/EGFR) (bispecific antibody)
chain 1: EVQLVESGGGLVQPGGSLRLSCAASGFTFNTYAMNWVRQAPGKGLEWVARIRSKYNNYATYYADSVKDRFTISRDDSKNTLYLQMNSLRAEDTAVYYCVRHGNFGNSYVSWFAYWGQGTLVTVSSASTKGPSVFPLAPSSKSTSGGTAALGCLVKDYFPEPVTVSWNSGALTSGVHTFPAVLQSSGLYSLSSVVTVPSSSLGTQTYICNVNHKPSNTKVDKKVEPKSCGGSGAKLAALKAKLAALKGGGGSDKTHTCPPCPAPPVAGPSVFLFPPKPKDTLMISRTPEVTCVVVDVSHEDPEVKFNWYVDGVEVHNAKTKPREEQYNSTYRVVSVLTVLHQDWLNGKEYKCKVSNKGLPSSIEKTISKAKGQPREPQVYTLPPSRDELTKNQVSLTCLVKGFYPSDIAVEWESNGQPENNYKTTPPVLDSDGSFFLYSKLTVDKSRWQQGNVFSCSVMHEALHNHYTQKSLSLSPGK
chain 2: QAVVTQEPSLTVSPGGTVTLTCRSSTGAVTTSNYANWVQQKPDHLFRGLIGGTNKRAPGTPARFSGSLLGDKAALTISGAQPEDEAEYYCALWYSNLWVFGGGTKLTVLKRTVAAPSVFIFPPSDEQLKSGTASVVCLLNNFYPREAKVQWKVDNALQSGNSQESVTEQDSKDSTYSLSSTLTLSKADYEKHKVYACEVTHQGLSSPVTKSFNRGECGGGGSELAALEAELAALEAGGSGDKTHTCPPCPAPPVAGPSVFLFPPKPKDTLMISRTPEVTCVVVDVSHEDPEVKFNWYVDGVEVHNAKTKPREEQYNSTYRVVSVLTVLHQDWLNGKEYKCKVSNKGLPSSIEKTISKAKGQPREPQVYTLPPSRDELTKNQVSLTCLVKGFYPSDIAVEWESNGQPENNYKTTPPVLDSDGSFFLYSKLTVDKSRWQQGNVFSCSVMHEALHNHYTQKSLSLSPGKGGSGGSGGGGSGGGGSDIQMTQSPSSLSASVGDRVTITCQASQDISNYLNWYQQKPGKAPKLLIYDASNLETGVPSRFSGSGSGTDFTFTISSLQPEDIATYFCQHFDHLPLAFGGGTKVEIKGGGGSGGGGSGGGGSQVQLQESGPGLVKPSETLSLTCTVSGGSVSSGDYYWTWIRQSPGKGLEWIGHIYYSGNTNYNPSLKSRLTISIDTSKTQFSLKLSSVTAADTAIYYCVRDRVTGAFDIWGQGTMVTVSS
Regarding B4, in assay [1], binding was put at a Kd of 0.161 nM.
